Assay results: PMC8389195, “Demyristoylation of the Cytoplasmic Redox Protein Trx-h2 Is Critical for Inducing a Rapid Cold Stress Response in Plants”

Target: MBP-CBF1 (Arabidopsis thaliana, UniProt P93835 1-213)
Experiment: EMSA; NADPH, Trx reductase, Trx-h2 (reduced CBF1); EMSA kit (Thermo Fisher), poly(dI-dC) binding buffer, NADPH/Trx reductase/Trx-h2 system, 6% polyacrylamide gel; proteins dialyzed in 20 mM HEPES-NaOH pH 8.0; salt and temperature not stated
Settings: protein: recombinant; tags: MBP (N-terminal, pMAL vector); blunt

Chain of MBP-CBF1 (P93835 whole entry): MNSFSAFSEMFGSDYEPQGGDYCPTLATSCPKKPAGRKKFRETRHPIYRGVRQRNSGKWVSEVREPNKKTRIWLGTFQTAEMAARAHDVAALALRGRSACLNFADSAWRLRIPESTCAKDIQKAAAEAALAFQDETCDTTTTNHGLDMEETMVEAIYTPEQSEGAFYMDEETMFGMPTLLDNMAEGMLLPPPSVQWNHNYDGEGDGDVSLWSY

B1: COR15a promoter CRT/DRE probe (dsDNA)
DNA 1: ATTTCATGGCCGACCTGCTTTTT
DNA 2: AAAAAGCAGGTCGGCCATGAAAT
B1: binds.
